Source: patent US20180346602A1

Tests used:
[1] = target: anti-VEGF/ANG2 antibody (IgG1 subclass with mutations P329G/L234A/L235A) [IgG part: P01857]; assay: sandwich ELISA assay E; tracer M1.7.10-Dig; analyte 2) at 25 ng/mL
[2] = target: anti-VEGF/ANG2 antibody (IgG1 subclass with mutations P329G/L234A/L235A/I253A/H310A/H435A) [IgG part: P01857]; assay: sandwich ELISA assay E; tracer M1.7.10-Dig; analyte 1) at 100 ng/mL
[3] = target: anti-VEGF/ANG2 antibody (IgG1 subclass with mutations P329G/L234A/L235A) [IgG part: P01857]; assay: sandwich ELISA assay E; tracer M1.7.10-Dig; analyte 2) at 3.124 ng/mL
[4] = target: anti-VEGF/ANG2 antibody (IgG1 subclass with mutations P329G/L234A/L235A/I253A/H310A/H435A) [IgG part: P01857]; assay: sandwich ELISA assay E; tracer M1.7.10-Dig; analyte 1) at 1.5625 ng/mL
[5] = target: anti-VEGF/ANG2 antibody (IgG1 subclass with mutations P329G/L234A/L235A/I253A/H310A/H435A) [IgG part: P01857]; assay: sandwich ELISA assay E; tracer M1.7.10-Dig; analyte 1) at 0 ng/mL (blank)
[6] = target: anti-VEGF/ANG2 antibody (IgG1 subclass with mutations P329G/L234A/L235A) [IgG part: P01857]; assay: sandwich ELISA assay E; tracer M1.7.10-Dig; analyte 2) at 0 ng/mL (blank)
[7] = target: anti-Dig antibody (IgG1 subclass with mutations P329G/L234A/L235A) [IgG part: P01857]; assay: sandwich ELISA assay D; tracer M1.7.10-Dig; analyte conc. not printed (row 1 of 8)
[8] = target: anti-Dig antibody (IgG1 subclass with mutations P329G/L234A/L235A) [IgG part: P01857]; assay: sandwich ELISA assay D; tracer M1.7.10-Dig; analyte conc. not printed (row 7 of 8)
[9] = target: anti-Dig antibody (IgG1 subclass with mutations P329G/L234A/L235A) [IgG part: P01857]; assay: sandwich ELISA assay D; tracer M1.7.10-Dig; analyte conc. not printed (row 8 of 8)
[10] = target: anti-Dig antibody (IgG1 subclass with mutations P329G/L234A/L235A) [IgG part: P01857]; assay: sandwich ELISA assay D; tracer M1.19.31-Dig; analyte conc. not printed (row 2 of 8)
[11] = target: anti-Dig antibody (IgG1 subclass with mutations P329G/L234A/L235A) [IgG part: P01857]; assay: sandwich ELISA assay D; tracer M1.19.31-Dig; analyte conc. not printed (row 4 of 8)
[12] = target: anti-Dig antibody (IgG1 subclass with mutations P329G/L234A/L235A) [IgG part: P01857]; assay: sandwich ELISA assay D; tracer M1.19.31-Dig; analyte conc. not printed (row 6 of 8)
[13] = target: anti-Dig antibody (IgG1 subclass with mutations P329G/L234A/L235A) [IgG part: P01857]; assay: sandwich ELISA assay D; tracer M1.19.31-Dig; analyte conc. not printed (row 7 of 8)
[14] = target: target antibodies; assay: depletion of target antibody from sample; concentration before depletion 0.30 µg/mL
[15] = target: target antibodies; assay: depletion of target antibody from sample; concentration before depletion 1.00 µg/mL
[16] = target: target antibodies; assay: depletion of target antibody from sample; concentration before depletion 3.00 µg/mL
[17] = target: target antibodies; assay: depletion of target antibody from sample; concentration before depletion 10.00 µg/mL
[18] = target: target antibodies; assay: depletion of target antibody from sample; concentration before depletion 100.00 µg/mL
[19] = target: anti-VEGF/ANG2 antibody (wild-type IgG1 subclass) (human) [IgG part: P01857]; assay: sandwich ELISA assay B; capture on SA plate; tracer M1.7.10-Dig; analyte 6 ng/mL
[20] = target: anti-VEGF/ANG2 antibody (wild-type IgG1 subclass) (human) [IgG part: P01857]; assay: sandwich ELISA assay C; capture on SA plate; tracer FcγRI-Dig; analyte 100 ng/mL
[21] = target: anti-VEGF/ANG2 antibody (wild-type IgG1 subclass) (human) [IgG part: P01857]; assay: sandwich ELISA assay B; capture on SA plate; tracer M1.7.10-Dig; analyte 13 ng/mL
[22] = target: anti-VEGF/ANG2 antibody (wild-type IgG1 subclass) (human) [IgG part: P01857]; assay: sandwich ELISA assay B; capture on SA plate; tracer M1.7.10-Dig; analyte 25 ng/mL
[23] = target: anti-VEGF/ANG2 antibody (wild-type IgG1 subclass) (human) [IgG part: P01857]; assay: sandwich ELISA assay B; capture on SA plate; tracer M1.7.10-Dig; analyte 50 ng/mL
[24] = target: anti-VEGF/ANG2 antibody (wild-type IgG1 subclass) (human) [IgG part: P01857]; assay: sandwich ELISA assay B; capture on SA plate; tracer M1.7.10-Dig; analyte 100 ng/mL
[25] = target: anti-VEGF/ANG2 antibody (wild-type IgG1 subclass) (human) [IgG part: P01857]; assay: sandwich ELISA assay C; capture on SA plate; tracer FcγRI-Dig; analyte 0 ng/mL (blank)
[26] = target: anti-VEGF/ANG2 antibody (wild-type IgG1 subclass) (human) [IgG part: P01857]; assay: sandwich ELISA assay B; capture on SA plate; tracer M1.7.10-Dig; analyte 0 ng/mL (blank)

B1: anti-variant (human) Fc-region antibody M1.3.17 (antibody, V domains shown)
VH: EVKLLESGGGLVQPGGSLKLSCAASGIDFRRYWMNWVRQAPGKGLEWIGEIDPDSSTINYTPSLKDKFIISRDNAKNTMYLQMRKVRSEDTALYYCARPYDYGAWFAYWGQGTLVTVSA
VL: QAVVTQESALTTSPGETVTLTCRSTTGAVTTSNYANWVQEKPDHLFTGLIGGTNKRAPGVPARFSGSLIGDKAALTITGAQTEDEAIYFCALWYSDHWVFGGGTKLTVL
- signal [OD405 nm] [1]: 1.48 OD405 nm
- signal [OD405 nm] [2]: 2.29 OD405 nm
- signal [OD405 nm] [3]: 0.316 OD405 nm
- signal [OD405 nm] [4]: 0.224 OD405 nm
- signal [OD405 nm] [5]: 0.027 OD405 nm
- signal [OD405 nm] [6]: 0.027 OD405 nm
- signal 10% cynomolgus serum [OD405 nm] [7]: 2.12 OD405 nm
- signal 10% human serum [OD405 nm] [7]: 2.66 OD405 nm
- signal buffer [OD405 nm] [7]: 0.053 OD405 nm
- signal 10% cynomolgus serum [OD405 nm] [8]: 0.052 OD405 nm
- signal 10% human serum [OD405 nm] [8]: 2.53 OD405 nm
- signal buffer [OD405 nm] [8]: 0.029 OD405 nm
- signal 10% cynomolgus serum [OD405 nm] [9]: 0.044 OD405 nm
- signal 10% human serum [OD405 nm] [9]: 2.51 OD405 nm
- signal buffer [OD405 nm] [9]: 0.031 OD405 nm
- signal 10% cynomolgus serum [OD405 nm] [10]: 0.872 OD405 nm
- signal 10% human serum [OD405 nm] [10]: 2.14 OD405 nm
- signal buffer [OD405 nm] [10]: 0.041 OD405 nm
- signal 10% cynomolgus serum [OD405 nm] [11]: 0.162 OD405 nm
- signal 10% human serum [OD405 nm] [11]: 1.73 OD405 nm
- signal buffer [OD405 nm] [11]: 0.037 OD405 nm
- signal 10% cynomolgus serum [OD405 nm] [12]: 0.082 OD405 nm
- signal 10% human serum [OD405 nm] [12]: 1.67 OD405 nm
- signal buffer [OD405 nm] [12]: 0.033 OD405 nm
- signal 10% cynomolgus serum [OD405 nm] [13]: 0.075 OD405 nm
- signal 10% human serum [OD405 nm] [13]: 1.71 OD405 nm
- signal buffer [OD405 nm] [13]: 0.033 OD405 nm
- concentration after depletion [14]: 0.0002 µg/mL
- recovery [%] [14]: 0.065%
- concentration after depletion [15]: 0.0007 µg/mL
- recovery [%] [15]: 0.067%
- concentration after depletion [16]: 0.0023 µg/mL
- recovery [%] [16]: 0.078%
- concentration after depletion [17]: 0.0017 µg/mL
- recovery [%] [17]: 0.017%
- concentration after depletion [18]: 0.0173 µg/mL
- recovery [%] [18]: 0.017%

B2: anti-variant (human) Fc-region antibody M1.7.24 (antibody, V domains shown)
VH: EVKLLESGGGLVQPGGSLKLSCAASGFDFSRYWMNWVRQAPGKGLEWIGEITPDSSTINYTPSLKDKFIISRDNAKNTLYLQMIKVRSEDTALYYCVRPYDYGAWFASWGQGTLVTVSA
VL: QAVVTQESALTTSPGETVTLTCRSSTGAVTTSNYANWVQEKPDHLFTGLIGGTNKRAPGVPARFSGSLIGDKAALTITGAQTEDEAIYFCALWYSNHWVFGGGTKLTVL
- signal [OD405 nm] [1]: 1.39 OD405 nm
- signal [OD405 nm] [2]: 2.31 OD405 nm
- signal [OD405 nm] [3]: 0.298 OD405 nm
- signal [OD405 nm] [4]: 0.208 OD405 nm
- signal [OD405 nm] [5]: 0.025 OD405 nm
- signal [OD405 nm] [6]: 0.028 OD405 nm
- signal [OD405 nm] [19]: 0.038 OD405 nm
- signal [OD405 nm] [20]: 0.073 OD405 nm
- signal [OD405 nm] [21]: 0.04 OD405 nm
- signal [OD405 nm] [22]: 0.041 OD405 nm
- signal [OD405 nm] [23]: 0.04 OD405 nm
- signal [OD405 nm] [24]: 0.047 OD405 nm
- signal 10% cynomolgus serum [OD405 nm] [7]: 2.37 OD405 nm
- signal 10% human serum [OD405 nm] [7]: 2.74 OD405 nm
- signal buffer [OD405 nm] [7]: 0.062 OD405 nm
- signal 10% cynomolgus serum [OD405 nm] [8]: 0.041 OD405 nm
- signal 10% human serum [OD405 nm] [8]: 2.44 OD405 nm
- signal buffer [OD405 nm] [8]: 0.034 OD405 nm
- signal 10% cynomolgus serum [OD405 nm] [9]: 0.031 OD405 nm
- signal 10% human serum [OD405 nm] [9]: 2.45 OD405 nm
- signal buffer [OD405 nm] [9]: 0.033 OD405 nm
- signal 10% cynomolgus serum [OD405 nm] [10]: 1.17 OD405 nm
- signal 10% human serum [OD405 nm] [10]: 2.04 OD405 nm
- signal buffer [OD405 nm] [10]: 0.051 OD405 nm
- signal 10% cynomolgus serum [OD405 nm] [11]: 0.173 OD405 nm
- signal 10% human serum [OD405 nm] [11]: 1.43 OD405 nm
- signal buffer [OD405 nm] [11]: 0.037 OD405 nm
- signal 10% cynomolgus serum [OD405 nm] [12]: 0.049 OD405 nm
- signal 10% human serum [OD405 nm] [12]: 1.36 OD405 nm
- signal buffer [OD405 nm] [12]: 0.033 OD405 nm
- signal 10% cynomolgus serum [OD405 nm] [13]: 0.039 OD405 nm
- signal 10% human serum [OD405 nm] [13]: 1.39 OD405 nm
- signal buffer [OD405 nm] [13]: 0.033 OD405 nm
- signal [OD405 nm] [25]: 0.073 OD405 nm
- signal [OD405 nm] [26]: 0.039 OD405 nm

B3: anti-AAA variant Fc-region antibody M1.6.22 (antibody, V domains shown)
VH: EVQLVESGGDLVKPGGSLKLSCAASGFTFSSYGMSWVRQTPDKRLEWVATISSGGSYIYYPDSVKGRFTISRDNAKNTLYLQMSSLKSEDTAMYYCARLGMITTGYAMDYWGQGTSVTVSS
VL: DVLMTQTPLSLPVSLGDQASISCRSSQTIVHSTGHTYLEWFLQKPGQSPKLLIYKVSNRFSGVPDRFSGSGSGTDFTLKISRVEAEDLGVYYCFQGSHVPYTFGGGTKLEIK
- signal [OD405 nm] [19]: 0.039 OD405 nm
- signal [OD405 nm] [20]: 0.076 OD405 nm
- signal [OD405 nm] [21]: 0.046 OD405 nm
- signal [OD405 nm] [22]: 0.047 OD405 nm
- signal [OD405 nm] [23]: 0.049 OD405 nm
- signal [OD405 nm] [24]: 0.061 OD405 nm
- concentration after depletion [14]: 0.0001 µg/mL
- recovery [%] [14]: 0.039%
- concentration after depletion [15]: 0.0003 µg/mL
- recovery [%] [15]: 0.031%
- concentration after depletion [16]: 0.0023 µg/mL
- recovery [%] [16]: 0.008%
- concentration after depletion [17]: 0.0005 µg/mL
- recovery [%] [17]: 0.005%
- concentration after depletion [18]: 0.0143 µg/mL
- recovery [%] [18]: 0.014%
- signal [OD405 nm] [25]: 0.069 OD405 nm
- signal [OD405 nm] [26]: 0.037 OD405 nm
